In patent US20140348747A1 one finds Kd data, which are given here for 1 molecule.

In general, Kd refers to the concentration at which binding is half-saturated. Low values mean higher affinity, high ones lower affinity.

Where a chain is given by its changes, count along the chain named. “And” between values parts separate entries of the source, which are not always exact repeats. Identical values can stand only once. Like-named read-outs stand apart in the source and are kept apart here.

Some targets named below: VA; 5P+VTG; 5P+VT; AA; VT; 5P+V.
Conditions in all cases: modification not given
The target in experiment [1] is T1, wild-type non-luminescent polypeptide (WT fragment of residues 1-156 of NanoLuc).
T1 chain: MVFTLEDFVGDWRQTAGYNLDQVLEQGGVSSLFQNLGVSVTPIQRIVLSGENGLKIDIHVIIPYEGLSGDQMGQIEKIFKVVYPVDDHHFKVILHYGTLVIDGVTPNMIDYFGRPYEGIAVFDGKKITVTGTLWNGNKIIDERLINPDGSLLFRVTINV

The next experiment has as its target T2, L46R.
T2 chain: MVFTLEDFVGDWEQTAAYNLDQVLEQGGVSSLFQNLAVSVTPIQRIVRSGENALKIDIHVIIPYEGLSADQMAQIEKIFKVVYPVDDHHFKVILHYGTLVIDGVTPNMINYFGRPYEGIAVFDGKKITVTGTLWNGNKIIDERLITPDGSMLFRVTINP

The next experiment concerns the target T3, D2.
T3 chain: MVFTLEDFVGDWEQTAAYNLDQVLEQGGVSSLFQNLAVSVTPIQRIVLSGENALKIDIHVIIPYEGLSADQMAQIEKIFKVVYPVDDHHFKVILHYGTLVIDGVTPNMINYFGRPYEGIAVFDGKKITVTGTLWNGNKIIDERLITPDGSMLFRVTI

The target in the next experiment is T4, H93P.
T4 chain: T2 chain with R48L, H95P

In the next experiment the target is T5, VTGWR.
T5 chain: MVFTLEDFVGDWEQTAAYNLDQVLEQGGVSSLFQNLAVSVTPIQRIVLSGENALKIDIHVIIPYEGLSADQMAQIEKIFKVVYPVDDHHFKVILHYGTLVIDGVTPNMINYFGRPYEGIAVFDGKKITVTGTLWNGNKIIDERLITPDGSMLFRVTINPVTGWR

In another experiment the target is T6, VTGW.
T6 chain: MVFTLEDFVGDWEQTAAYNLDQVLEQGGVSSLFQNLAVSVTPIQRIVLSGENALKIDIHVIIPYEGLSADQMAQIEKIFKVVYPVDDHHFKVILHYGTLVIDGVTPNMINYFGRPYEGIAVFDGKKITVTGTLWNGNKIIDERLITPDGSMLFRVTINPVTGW

Experiment [2] addresses T1, wild-type non-luminescent polypeptide ….
Experiment [3] shares this target.
Another experiment deals with T7, F31L+H93P.
T7 chain: T2 chain with F33L, R48L, H95P

The next experiment deals with T8, V58A.
T8 chain: T2 chain with R48L, V60A

For a further experiment, the target named is T9, H57R.
T9 chain: T2 chain with R48L, H59R

In a further experiment the target is T10, F31L.
T10 chain: T2 chain with F33L, R48L

Another experiment deals with T11, A51T.
T11 chain: T2 chain with R48L, A53T

In a further experiment the target is T12, P157S.
T12 chain: T2 chain with R48L, P159S

Another experiment has as its target T13, NLpoly 11S (12-A51T).
T13 chain: T2 chain with F33L, K77E, I78V, H95P, I109L, P159S

For the next experiment, the target named is T14, P157H.
T14 chain: T2 chain with R48L, P159H

B1: NLpep78 (peptide)
chain: NVSGWRLFKKISN
For the molecule B1, the Kd in experiment [1] was 0.341 µM and 1.05 µM; with L46R, 0.0184 µM; in the experiment with VA it was 0.0146 µM; in the experiment with 5P+VTG, 0.026 µM; with D2, 0.0102 µM; in the experiment with H93P, 0.024 µM. The Kd with 5P+VT came to 0.0254 µM; with VTGWR, 0.0133 µM; in the experiment with VTGW, 0.013 µM; in [2] it was 1750 µM; in [3] it was 0.784 µM; in the experiment with F31L+H93P, 0.0172 µM. Moreover, the Kd in the experiment with AA was 0.0113 µM; in the experiment with V58A, 0.0152 µM; with H57R, 0.0141 µM; with F31L, 0.0148 µM; with A51T, 0.0188 µM; in the experiment with VT, 0.0131 µM. The Kd stood at 0.0152 µM with P157S, 26 µM with NLpoly 11S (12-A51T), 0.0179 µM with P157H and 0.0249 µM with 5P+V.
